Literature values, collected in article PMC4017372.

Tests used:
[1] = target: UreE (Helicobacter pylori) (UniProt B5Z672); assay: ITC
[2] = target: HypB (Helicobacter pylori) (UniProt O25560)
Chain of UniProt O25560 (O25560 whole entry): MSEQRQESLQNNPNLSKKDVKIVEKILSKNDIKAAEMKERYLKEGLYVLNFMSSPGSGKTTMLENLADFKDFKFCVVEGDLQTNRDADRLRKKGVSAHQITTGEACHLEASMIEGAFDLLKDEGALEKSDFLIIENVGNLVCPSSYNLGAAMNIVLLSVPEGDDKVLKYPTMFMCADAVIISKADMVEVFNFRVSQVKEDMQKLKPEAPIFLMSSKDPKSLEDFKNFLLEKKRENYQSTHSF

Chain of UniProt B5Z672 (B5Z672 whole entry): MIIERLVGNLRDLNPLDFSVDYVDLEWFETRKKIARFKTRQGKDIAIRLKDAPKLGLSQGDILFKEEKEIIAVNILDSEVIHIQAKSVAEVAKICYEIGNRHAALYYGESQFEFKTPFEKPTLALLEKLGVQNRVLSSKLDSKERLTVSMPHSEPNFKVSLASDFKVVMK

Substance	Kd [1] [µM]	Kd [2] [µM]
UreG (from UniProt B6JPH1)	4	
HypA (from UniProt P0A0U5)		52
